Here are results for 40 sequences from the nanobody polyreactivity screen of Harvey et al. (2022).

A short description of the data set: yeast display, Sf9 membrane polyspecificity reagent, FACS + sequencing; frameworks hold sequencing errors. The procedure, abridged: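 After 36–48 hours of galactose induction, yeast (Saccharomyces cerevisiae BJ5465) displaying a synthetic nanobody library were stained at 4 °C for 1 hour with 10% biotinylated, detergent-solubilized Sf9 membrane reagent. Streptavidin microbeads enriched the stained cells before FACS sorting into low and high (top ~1%) gates on anti-HA and streptavidin fluorescence. Each clone's polyreactivity label reflects its gate of origin.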
“QVQLVESGGGLVQAGGSLRLSCAASGLTFSLNAMGGYRQAPGKERELVAAIRGSGGSTYYADSVKGRFTISRDNAKNTVYLQMNSLKPEDTAVYYCNADQLVWQRYGVLYEYDYWGQGTQVTVSS”: the “polyreactivity (PSR sort gate)” value is recorded as “high polyreactivity”. On to “QVQLVESGGGLVQAGGSLRLSCAASGLTFSQNAMGWYRQAPGKERELVAAITRSGSTTHYADSVKGRFTISRDNAKNTVYLQMNSLKPEDTAVYYCAAVAFLTRYYYWGQGTQVTVSS”, for which the “polyreactivity (PSR sort gate)” value is listed as “high polyreactivity”. Then “QVQLVESGGGLVQAGGSLRLSCAASGLTFSRYAMGWYRQAPGKERELVAAITWSGSSTYYADSVKGRFTISRDNAKNTVYLQMNSLKPEDTAVYYCAARYGYSRGPYYRSDYWGQGTQVTVSS”, with “high polyreactivity”.

Consider “QVQLVESGGGLVQAGGSLRLSCAASGLTFSVYAMGWYRQAPGKERELVAAISYSGDSTYADSVKGRFTISRDNAKNTVYLQMNSLKPEDTAVYYCNARWVRQGYRRWYDYWGQGTQVTVSS”, for which the “polyreactivity (PSR sort gate)” value was “low polyreactivity”. “QVQLVESGGGLVQAGGSLRLSCAASGLTFSVYAMGWYRQAPGKERELVAAITRNGGSTYYADSVKGRFTISRDNAKNTVYLQMNSLKTEDTAVYYCAADASSKLYDYWGQGTQVSVSS”: the “polyreactivity (PSR sort gate)” value is recorded as “low polyreactivity”. In the case of “QVQLVESGGGLVQAGGSLRLSCAASGLTFSWNAMGWYRQAPGKERELVAAISSRGGSTYYADSVKWRFKISRDNAKNTVYLQMNSLKPEDTAVYYCNAHGRRFLGDYGYWGQGTQVTVSS”, the “polyreactivity (PSR sort gate)” value was “low polyreactivity”. The same measure for “QVQLVESGGGLVQAGGSLRLSCAASGLTFTGYFMGWYRQAPGKERELVAAISYSGSSTYYADSVKGRFTISRDNAKNTVYLQMNSLKQEDTAVYYCAATSHAYYPRYYYWGQGTQVTVSS”: “high polyreactivity”. The same measure for “QVQLVESGGGLVQAGGSLRLSCAASGLTFTKYAMGWYRKAPGKEREFVASISWNGGDTYADSVKGRFTISRDNAKNTVYLQMNSLKPEDTAVYYCAARRTQQKVYYWGQGTQVTVSS”: “high polyreactivity”; for “QVQLVESGGGLVQAGGSLRLSCAASGLTFTSYAMGWSRPAPGKERELVAAIDWSGGRTYYADSVKGRFTISRDNAKNTVYLQMNSLKPEDTAVYYCAAYSRNRALRFNYWGQGTQVTVSS”: “high polyreactivity”. Then “QVQLVESGGGLVQAGGSLRLSCAASGLTFTSYAMGWYRQAPGKERELVAAIDWSGGRTYYADSVKGRFTISRDNAKNTVYLQMNSLKPEDTAVYYCYKYRYQWPYRRFDYWGQGTQVTVSS”, with “high polyreactivity”; and “QVQLVESGGGLVQAGGSLRLSCAASGLTFTYYAMGWYRQAPGKERELVAAISSSGSDTYYADSVKGRFTISRDNAKNTVYLQMNSLKPEDTAVYYCAAVLTALSPDFEYEYWGQGTQVTVSS”, with “low polyreactivity”; and “QVQLVESGGGLVQAGGSLRLSCAASGLTFVANAMGWYRQAPGKERELVAAIDYGGGHTYYADSVKGRFTNSRDNAKNTVYLQMNSLKPEDTAVYYCAVGLPHGGRRLYGSWYRFDYWGQGTQVTVSS”, with “low polyreactivity”. On to “QVQLVESGGGLVQAGGSLRLSCAASGLTFVDYAMGWYRQAPGKERELVAAITSSGGSITYYADSVKGRFTISRDNAKNTVYLQMNSLKPEDTAVYYCNADYGIYTDSFRGPDYESWGQGTQVTVSS”, for which the “polyreactivity (PSR sort gate)” value is reported as “low polyreactivity”.

On to “QVQLVESGGGLVQAGGSLRLSCAASGLTFVFYAMGWYRQAPGKERELVAAISSSGGSTNYADSVKGRFTISRDNAKNTVYLQMNSLKPEDTAVYYCNAALLGKQYYSNPNYDYWGQGTQVTVSS”, for which the “polyreactivity (PSR sort gate)” value is listed as “high polyreactivity”.

As for “QVQLVESGGGLVQAGGSLRLSCAASGLTFVFYAMGWYRQSPGNERELVAAISWSTGRTYYADSVKGRFTISRDNAKNTVYLQMNSLKPEDTAVFYCGASFLGRKYDYWGHGTQVTVSS”, the “polyreactivity (PSR sort gate)” value is listed as “high polyreactivity”. The same measure for “QVQLVESGGGLVQAGGSLRLSCAASGLTFVGNAMGWYRQAPGKERELVAAISRSGGRTYYADSVKGRFTISRDNAKNTVYLQMNSLKPEDTAVYYCAAPYRSYDWYDYWGQGTQVTVSS”: “high polyreactivity”.

In the case of “QVQLVESGGGLVQAGGSLRLSCAASGLTFVHYAMGWYRQAPGKQRDLVAAISSGGGSTYYADSVKGRFTISRDNAKNTVYLQMNSLKPEDTAVYYCNVYDHYYSFYSSRDNDYWGQGTQVTVSS”, the “polyreactivity (PSR sort gate)” value is listed as “low polyreactivity”. On to “QVQLVESGGGLVQAGGSLRLSCAASGLTFVPNAMGWYRQAPGKERELVAAISNNGGRTYYADSVKGRFTISRDNAKNNVYLQMNSLKPEDTAVYYCAKYLSPGERHSYDYWGQGTQVTLSS”, for which the “polyreactivity (PSR sort gate)” value is “high polyreactivity”.

Consider “QVQLVESGGGLVQAGGSLRLSCAASGLTFVQNAMGWYRQAPGKERELVAAISTSGGSTYYADSVKGRFTISRDNAKNTVYLQMNSLKPEDTAVYYCAAYPRSWWRGYDYWGQGTQVTVSS”, for which the “polyreactivity (PSR sort gate)” value is reported as “high polyreactivity”. The same measure for “QVQLVESGGGLVQAGGSLRLSCAASGLTFVRYAMGWYRQAPGKERELVAVISYSGARTYYADSVKGRFTISRDNAKNTVYLQMNSLKPEDTAVYYCAATFRGTFRRIWTDTRAYDYWGQGTQVTVSS”: “high polyreactivity”; for “QVQLVESGGGLVQAGGSLRLSCAASGLTFVTYVMGWYRQAPGKERELVAAISYSGGSTYYADSVKGRFTISRDNAKNTVYLQMISLKPEDTAVYYCAAEWYGYQEDDYWGQGTQVTVSS”: “low polyreactivity”. As to “QVQLVESGGGLVQAGGSLRLSCAASGLTFVYNTMGWYSQAPGKERELVAAISSSGGTTYYADSVKGRFTISRDTAKNTVYLQMNSLKPEDTAVYYCAARPSGGYESTRTRDYWGQGTHVTVSS”, the “polyreactivity (PSR sort gate)” value is reported as “low polyreactivity”. On to “QVQLVESGGGLVQAGGSLRLSCAASGLTFVYYAMGWSRPAPGKERELVAAISRGGTTYYADSVKGRFTISRDNAKNTVYLQMNSLKPEDTAVYYCARVGRYRYEWGQGTQVTVSS”, for which the “polyreactivity (PSR sort gate)” value is listed as “high polyreactivity”.

Take “QVQLVESGGGLVQAGGSLRLSCAASGLTFVYYTMGWYRQAPGKERELVAAISGSGDNTYYADSVKGRFTISRDNAKNTVYLQMNSLKPEDTAVYYCAADKSYYYYLFGYDYWGQGTQVTVSS”: the “polyreactivity (PSR sort gate)” value is on record as “low polyreactivity”. The same measure for “QVQLVESGGGLVQAGGSLRLSCAASGLTFVYYTMGWYRQAPGKERELVAGINSGGSTYYADSVKGRFTISRDNAKNTVFLQMNSLKPEDTAVYYCAAVQRGYRRFRRIYDYWGQGTQVTVSS”: “high polyreactivity”; for “QVQLVESGGGLVQAGGSLRLSCAASGLTFWGNAMGWYRQAPGKEREFVAGIDRSSVSTYADSVKGRFTISRDNAKNTVYLQMNSLKPEDTAVYYCAVDEYGIWVGWVPYATFGMNYWGQGTQVTVSS”: “high polyreactivity”.

Regarding “QVQLVESGGGLVQAGGSLRLSCAASGLTFWGNTMGWYRQAPGKERELVAAISSGGITYYADSVKGRFTISRDNANNTVYLLMNSLKPEETAVYYCIGVFSFVPHEMDYWGLGTQVTVSS”, the “polyreactivity (PSR sort gate)” value is recorded as “high polyreactivity”. The same measure for “QVQLVESGGGLVQAGGSLRLSCAASGLTFWGYAMGWYRQAPGKEREFVASISSGGGSTYYADSVKGRFTISRDNAKNTVYLQMNSLKPEDTAVYYCNVDVHLYLYKSYTYRYYYWGQGTQVTVSS”: “low polyreactivity”; for “QVQLVESGGGLVQAGGSLRLSCAASGLTFWRYTMGWYRHAPGKERELVATIRRGTSTNYADSVKGRFTISRDNAKNTVYLQMNSLKPEDTAVYYCAAVPWRYYVEYDYWGQGTQVTVSS”: “high polyreactivity”. The same measure for “QVQLVESGGGLVQAGGSLRLSCAASGLTFWRYTMGWYRPAPGKERELVAVITYRGGSTYYADSVKGRFTISRDNAKNTVYLQMNSLKPEDTAVYYCDAGRRTYGLTYDYWGQGTQVTVSS”: “high polyreactivity”; for “QVQLVESGGGLVQAGGSLRLSCAASGLTFWTNTMGWSRQAPGKERELVATISSGGGTYYADSVKGRFTISRDNAKNTVYLQMNSLKPEDTAVYYCAAKRKRYFVGYYYWGQGTQVTVSS”: “low polyreactivity”. Take “QVQLVESGGGLVQAGGSLRLSCAASGLTFWYYAMGWYRQAPGKERELVAAISFSGGRTYYADSVKGRFTISRDNAKYTVYLQMNSLKPEDTAVYYCNKATWYPFWYAPSYDYWGQGTQVTVSS”: the “polyreactivity (PSR sort gate)” value is listed as “high polyreactivity”. The same measure for “QVQLVESGGGLVQAGGSLRLSCAASGLTFYEDVLGWYRQAPGKERELVAAISYSGGRTYYADSVQGRFTISRDNAKNTVYLQMNSLKPEDTAVYYSAAQSRYAGKFYYWGQGTQVTVSS”: “high polyreactivity”; for “QVQLVESGGGLVQAGGSLRLSCAASGLTFYGNAMGWYIQAPGKERELVAAISSRGGRTYYADSVKGRFTISRDNAKNTVYLQMNSLKPEDTAVYYCNDRYKYPDMDYWGQGTQVTVSS”: “high polyreactivity”. Then “QVQLVESGGGLVQAGGSLRLSCAASGLTFYGNAMGWYRQAPGKERELVAAISRGGRTYYADSVKGRFTISRDNAKNTVYLQMNSLKPEDTAVYYCATVVSRGKQPFDMDYWGQGTQVTVSS”, with “low polyreactivity”; and “QVQLVESGGGLVQAGGSLRLSCAASGLTFYGYTMGWYRQAPGKERELVADISISGGSTRYADSVKGRFTISRDNAKNTVYLQMNSLKPEDTAVYYCARDDIYYSNIYDYWGQGTQVTVSS”, with “low polyreactivity”. The same measure for “QVQLVESGGGLVQAGGSLRLSCAASGLTFYGYVMGWYRQAPGKERELVASISRSGGRTYYADSVKGRFTISRDNAKNTVYLQMNSLKPEDTAVYYCAAADQVGQEDDYWGQGTQVTVSS”: “low polyreactivity”; for “QVQLVESGGGLVQAGGSLRLSCAASGLTFYKNAMGWYRQPPGKERELGAVISSSGGSTYYADSVKGRFTISRDNAKNTVYLQMKSLKPEDTAVYYSARDLYTEYRWGRLTYDYWGQGTQVTVSS”: “low polyreactivity”; for “QVQLVESGGGLVQAGGSLRLSCAASGLTFYPNAMGWYRPAPGKEREFVASISISGRTYYADSVKGRFTISRDNAKNTVYLQMNSLKPEDTAVYYCAARYVRSGLYRKYDYWGQGTQVTVSS”: “high polyreactivity”. Regarding “QVQLVESGGGLVQAGGSLRLSCAASGLTFYQYAMGWYRQAPGKERELVAAISKSAGSTYYADSVKGSFTISRDNAKNTVYLQMNSLKPEDTAVYFCAARVLRLRYDYWGQGTQVTVSS”, the “polyreactivity (PSR sort gate)” value is recorded as “high polyreactivity”.
